Test results from paper PMC10540216, “Activity Guided Azide-methyllysine Photo-trapping for Substrate Profiling of Lysine Demethylases” (Journal of the American Chemical Society, 2023).

B1: SMC3_HUMAN (protein, UniProt Q9UQE7 1-1217, looked up)
Structural maintenance of …: MYIKQVIIQGFRSYRDQTIVDPFSSKHNVIVGRNGSGKSNFFYAIQFVLSDEFSHLRPEQRLALLHEGTGPRVISAFVEIIFDNSDNRLPIDKEEVSLRRVIGAKKDQYFLDKKMVTKNDVMNLLESAGFSRSNPYYIVKQGKINQMATAPDSQRLKLLREVAGTRVYDERKEESISLMKETEGKREKINELLKYIEERLHTLEEEKEELAQYQKWDKMRRALEYTIYNQELNETRAKLDELSAKRETSGEKSRQLRDAQQDARDKMEDIERQVRELKTKISAMKEEKEQLSAERQEQIKQRTKLELKAKDLQDELAGNSEQRKRLLKERQKLLEKIEEKQKELAETEPKFNSVKEKEERGIARLAQATQERTDLYAKQGRGSQFTSKEERDKWIKKELKSLDQAINDKKRQIAAIHKDLEDTEANKEKNLEQYNKLDQDLNEVKARVEELDRKYYEVKNKKDELQSERNYLWREENAEQQALAAKREDLEKKQQLLRAATGKAILNGIDSINKVLDHFRRKGINQHVQNGYHGIVMNNFECEPAFYTCVEVTAGNRLFYHIVDSDEVSTKILMEFNKMNLPGEVTFLPLNKLDVRDTAYPETNDAIPMISKLRYNPRFDKAFKHVFGKTLICRSMEVSTQLARAFTMDCITLEGDQVSHRGALTGGYYDTRKSRLELQKDVRKAEEELGELEAKLNENLRRNIERINNEIDQLMNQMQQIETQQRKFKASRDSILSEMKMLKEKRQQSEKTFMPKQRSLQSLEASLHAMESTRESLKAELGTDLLSQLSLEDQKRVDALNDEIRQLQQENRQLLNERIKLEGIITRVETYLNENLRKRLDQVEQELNELRETEGGTVLTATTSELEAINKRVKDTMARSEDLDNSIDKTEAGIKELQKSMERWKNMEKEHMDAINHDTKELEKMTNRQGMLLKKKEECMKKIRELGSLPQEAFEKYQTLSLKQLFRKLEQCNTELKKYSHVNKKALDQFVNFSEQKEKLIKRQEELDRGYKSIMELMNVLELRKYEAIQLTFKQVSKNFSEVFQKLVPGGKATLVMKKGDVEGSQSQDEGEGSGESERGSGSQSSVPSVDQFTGVGIRVSFTGKQGEMREMQQLSGGQKSLVALALIFAIQKCDPAPFYLFDEIDQALDAQHRKAVSDMIMELAVHAQFITTTFRPELLESADKFYGVKFRNKVSHIDVITAEMAKDFVEDDTTHG
B2: SF3B2_HUMAN (protein, UniProt Q13435 1-895, looked up)
Splicing factor 3B subunit 2: MATEHPEPPKAELQLPPPPPPGHYGAWAAQELQAKLAEIGAPIQGNREELVERLQSYTRQTGIVLNRPVLRGEDGDKAAPPPMSAQLPGIPMPPPPLGLPPLQPPPPPPPPPPGLGLGFPMAHPPNLGPPPPLRVGEPVALSEEERLKLAQQQAALLMQQEERAKQQGDHSLKEHELLEQQKRAAVLLEQERQQEIAKMGTPVPRPPQDMGQIGVRTPLGPRVAAPVGPVGPTPTVLPMGAPVPRPRGPPPPPGDENREMDDPSVGPKIPQALEKILQLKESRQEEMNSQQEEEEMETDARSSLGQSASETEEDTVSVSKKEKNRKRRNRKKKKKPQRVRGVSSESSGDREKDSTRSRGSDSPAADVEIEYVTEEPEIYEPNFIFFKRIFEAFKLTDDVKKEKEKEPEKLDKLENSAAPKKKGFEEEHKDSDDDSSDDEQEKKPEAPKLSKKKLRRMNRFTVAELKQLVARPDVVEMHDVTAQDPKLLVHLKATRNSVPVPRHWCFKRKYLQGKRGIEKPPFELPDFIKRTGIQEMREALQEKEEQKTMKSKMREKVRPKMGKIDIDYQKLHDAFFKWQTKPKLTIHGDLYYEGKEFETRLKEKKPGDLSDELRISLGMPVGPNAHKVPPPWLIAMQRYGPPPSYPNLKIPGLNSPIPESCSFGYHAGGWGKPPVDETGKPLYGDVFGTNAAEFQTKTEEEEIDRTPWGELEPSDEESSEEEEEEESDEDKPDETGFITPADSGLITPGGFSSVPAGMETPELIELRKKKIEEAMDGSETPQLFTVLPEKRTATVGGAMMGSTHIYDMSTVMSRKGPAPELQGVEVALAPEELELDPMAMTQKYEEHVREQQAQVEKEDFSDMVAEHAAKQKQKKRKAQPQDSRGGSKKYKEFKF
B3: RBM33_HUMAN (protein, UniProt Q96EV2 2-1170, looked up)
RNA-binding protein 33: AAALGASGGAGAGDDDFDQFDKPGAERSWRRRAADEDWDSELEDDLLGEDLLSGKKNQSDLSDEELNDDLLQSDNEDEENFSSQGVTISLNATSGMVTSFELSDNTNDQSGEQESEYEQEQGEDELVYHKSDGSELYTQEYPEEGQYEGHEAELTEDQIEYVEEPEEEQLYTDEVLDIEINEPLDEFTGGMETLELQKDIKEESDEEEEDDEESGRLRFKTERKEGTIIRLSDVTRERRNIPETLELSAEAKAALLEFEERERQHKQGRYSSRRGGRRGGPLMCRGVGDQRRESTERGRMKDHRPALLPTQPPVVPQAPPPPPPPPQQQPIRSLFQPQPLQPLLPVQHPHHPSPPQGMHMPPQLETPRMMMTPPPVTPQQPKNIHINPHFKGTVVTPVQVPLLPVPSQPRPAVGPQRFPGPPEFPQHTPGPVPNSFSQPPRLPLQDQWRAPPPPQDRDPFFLGVSGEPRFPSHLFLEQRSPPPPPPPPTLLNSSHPVPTQSPLPFTQPGPAFNQQGQQPVFPRERPVRPALQPPGPVGILHFSQPGSATTRPFIPPRQPFLPGPGQPFLPTHTQPNLQGPLHPPLPPPHQPQPQQPQQQPPPQHQPPHQPPHQPPPQHQPPPQHPPQHPPQHQHHHHHHHLSVPPPPLMPMSQPQFRPHVQTAQPQASSSRMQCPQRQGLRHNTTSQNVSKRPMQQMQPTAPRNSNLRELPIAPSHVIEMSSSRCSATPSAQVKPIVSASPPSRAVAGSRSSQGKTEVKVKPASPVAQPKEEAKTETEFPDEDEETRLYRLKIEEQKRLREEILKQKELRRQQQAGARKKELLERLAQQQQQLYAPPPPAEQEEQALSPSPTNGNPLLPFPGAQVRQNVKNRLLVKNQDVSISNVQPKTSNFVPSSANMQYQGQQMKALKHLRQTRTVPQSQTQPLHKVLPIKPADVEEPAVPQTPRVASIQGRPQDTKPGVKRTVTHRTNSGGGDGPHISSKVRVIKLSGGGGESDGFFHPEGQPQRLPQPPEVGPQPARKVTLTRGGLQQPPHLPAGPHAHSPVPPGIKSIQGIHPAKKAIMHGRGRGVAGPMGRGRLMPNKQNLRVVECKPQPCVVSVEGLSSSTTDAQLKSLLMSVGPIQSLQMLPQQRKAIAKFKEPAHALAFQQKFHRHMIDLSHINVALIVE
B4: AMOT_HUMAN (protein, UniProt Q4VCS5 1-1084, looked up)
Angiomotin: MRNSEEQPSGGTTVLQRLLQEQLRYGNPSENRSLLAIHQQATGNGPPFPSGSGNPGPQSDVLSPQDHHQQLVAHAARQEPQGQEIQSENLIMEKQLSPRMQNNEELPTYEEAKVQSQYFRGQQHASVGAAFYVTGVTNQKMRTEGRPSVQRLNPGKMHQDEGLRDLKQGHVRSLSERLMQMSLATSGVKAHPPVTSAPLSPPQPNDLYKNPTSSSEFYKAQGPLPNQHSLKGMEHRGPPPEYPFKGMPPQSVVCKPQEPGHFYSEHRLNQPGRTEGQLMRYQHPPEYGAARPAQDISLPLSARNSQPHSPTSSLTSGGSLPLLQSPPSTRLSPARHPLVPNQGDHSAHLPRPQQHFLPNQAHQGDHYRLSQPGLSQQQQQQQQQHHHHHHHQQQQQQQPQQQPGEAYSAMPRAQPSSASYQPVPADPFAIVSRAQQMVEILSDENRNLRQELEGCYEKVARLQKVETEIQRVSEAYENLVKSSSKREALEKAMRNKLEGEIRRMHDFNRDLRERLETANKQLAEKEYEGSEDTRKTISQLFAKNKESQREKEKLEAELATARSTNEDQRRHIEIRDQALSNAQAKVVKLEEELKKKQVYVDKVEKMQQALVQLQAACEKREQLEHRLRTRLERELESLRIQQRQGNCQPTNVSEYNAAALMELLREKEERILALEADMTKWEQKYLEENVMRHFALDAAATVAAQRDTTVISHSPNTSYDTALEARIQKEEEEILMANKRCLDMEGRIKTLHAQIIEKDAMIKVLQQRSRKEPSKTEQLSCMRPAKSLMSISNAGSGLLSHSSTLTGSPIMEEKRDDKSWKGSLGILLGGDYRAEYVPSTPSPVPPSTPLLSAHSKTGSRDCSTQTERGTESNKTAAVAPISVPAPVAAAATAAAITATAATITTTMVAAAPVAVAAAAAPAAAAAPSPATAAATAAAVSPAAAGQIPAAASVASAAAVAPSAAAAAAVQVAPAAPAPVPAPALVPVPAPAAAQASAPAQTQAPTSAPAVAPTPAPTPTPAVAQAEVPASPATGPGPHRLSIPSLTCNPDKTDGPVFHSNTLERKTPIQILGQEPDAEMVEYLI
B5: ATX2L_HUMAN (protein, UniProt Q8WWM7 1-1075, looked up)
Ataxin-2-like protein: MLKPQPLQQPSQPQQPPPTQQAVARRPPGGTSPPNGGLPGPLATSAAPPGPPAAASPCLGPVAAAGSGLRRGAEGILAPQPPPPQQHQERPGAAAIGSARGQSTGKGPPQSPVFEGVYNNSRMLHFLTAVVGSTCDVKVKNGTTYEGIFKTLSSKFELAVDAVHRKASEPAGGPRREDIVDTMVFKPSDVMLVHFRNVDFNYATKDKFTDSAIAMNSKVNGEHKEKVLQRWEGGDSNSDDYDLESDMSNGWDPNEMFKFNEENYGVKTTYDSSLSSYTVPLEKDNSEEFRQRELRAAQLAREIESSPQYRLRIAMENDDGRTEEEKHSAVQRQGSGRESPSLASREGKYIPLPQRVREGPRGGVRCSSSRGGRPGLSSLPPRGPHHLDNSSPGPGSEARGINGGPSRMSPKAQRPLRGAKTLSSPSNRPSGETSVPPPPAVGRMYPPRSPKSAAPAPISASCPEPPIGSAVPTSSASIPVTSSVSDPGVGSISPASPKISLAPTDVKELSTKEPGRTLEPQELARIAGKVPGLQNEQKRFQLEELRKFGAQFKLQPSSSPENSLDPFPPRILKEEPKGKEKEVDGLLTSEPMGSPVSSKTESVSDKEDKPPLAPSGGTEGPEQPPPPCPSQTGSPPVGLIKGEDKDEGPVAEQVKKSTLNPNAKEFNPTKPLLSVNKSTSTPTSPGPRTHSTPSIPVLTAGQSGLYSPQYISYIPQIHMGPAVQAPQMYPYPVSNSVPGQQGKYRGAKGSLPPQRSDQHQPASAPPMMQAAAAAGPPLVAATPYSSYIPYNPQQFPGQPAMMQPMAHYPSQPVFAPMLQSNPRMLTSGSHPQAIVSSSTPQYPSAEQPTPQALYATVHQSYPHHATQLHAHQPQPATTPTGSQPQSQHAAPSPVQHQAGQAPHLGSGQPQQNLYHPGALTGTPPSLPPGPSAQSPQSSFPQPAAVYAIHHQQLPHGFTNMAHVTQAHVQTGITAAPPPHPGAPHPPQVMLLHPPQSHGGPPQGAVPQSGVPALSASTPSPYPYIGHPQGEQPGQAPGFPGGADDRIREFSLAGGIWHGRAEGLQVGQDARVLGGE
B6: KRT85_HUMAN (protein, UniProt P78386 1-507, looked up)
Keratin, type II cuticular Hb5: MSCRSYRISSGCGVTRNFSSCSAVAPKTGNRCCISAAPYRGVSCYRGLTGFGSRSLCNLGSCGPRIAVGGFRAGSCGRSFGYRSGGVCGPSPPCITTVSVNESLLTPLNLEIDPNAQCVKQEEKEQIKSLNSRFAAFIDKVRFLEQQNKLLETKWQFYQNQRCCESNLEPLFSGYIETLRREAECVEADSGRLASELNHVQEVLEGYKKKYEEEVALRATAENEFVVLKKDVDCAYLRKSDLEANVEALVEESSFLRRLYEEEIRVLQAHISDTSVIVKMDNSRDLNMDCIIAEIKAQYDDVASRSRAEAESWYRSKCEEMKATVIRHGETLRRTKEEINELNRMIQRLTAEIENAKCQRAKLEAAVAEAEQQGEAALSDARCKLAELEGALQKAKQDMACLLKEYQEVMNSKLGLDIEIATYRRLLEGEEHRLCEGVGSVNVCVSSSRGGVSCGGLSYSTTPGRQITSGPSAIGGSITVVAPDSCAPCQPRSSSFSCGSSRSVRFA
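Note: lysates from HEK293T cells pretreated with a KDM4 inhibitor to raise proteome methylation, affinity-purified after ±UV, gel-resolved, trypsin-digested, with exclusive unique peptides per protein averaged per condition.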

What follows are molecules tested on KDM4A-I71AzF (assay: CASI: photo-crosslinking with HEK293T cell extracts, StrepTactin enrichment and LC-MS/MS proteomics). Conditions: sheet "Final results but with 0.01".
Type: binding, human
B1 was tested, and the “Fold change (+UV/-UV)” value was 0.375. With B2 the “Fold change (+UV/-UV)” value was 0.7273. In the case of B3, the “Fold change (+UV/-UV)” value is reported as 0.3333. In the case of B4, the “Fold change (+UV/-UV)” value is reported as 1.125. For B5, the “Fold change (+UV/-UV)” value was 0. With B6 the “Fold change (+UV/-UV)” value was 3.
